For series [1], the system named is Asterina miniata immature oocytes. The experiment in a line: Microinjection into immature starfish oocytes, oocyte maturation (GVBD, polar body extrusion). The series is classed as cell-based. Particulars: for maturation and fertilization of injected egg: 10 μM 1-MA. On the procedure: (§1) Asterina miniata gametes were collected and microinjections were performed as described previously (Carroll et al., 1999). Briefly, quantitative microinjection of Asterina miniata oocytes was performed at 16° C., using mercury-filled micropipets (Hiramoto, 1962; Kiehart, 1982; and see the information available at http://egg/uchc.edu/injection), allowing injection of precisely calibrated picoliter volumes into the oocytes and blastomeres. Injection volumes were 3% of the total cellular volume (for oocytes, 93 pL and for blastomeres, 47 pL). Buffer alone, purified O-acetylated ADP ribose or recombinant protein was injected into immature oocytes or one blastomere of a two cell stage embryo to a final concentration in the cytoplasm as indicated in the figure legends and Tables. 1-methyl adenine was from Sigma and was used at 10 μM.
Micro-injection assays were performed in starfish and sea urchin ooctyes. Historically echinoderm development has been a biochemically tractable and well-defined system to assess biological function of pruteins, bio-active compounds and for detailed analyses of the cell cycle. This system is attractive for its amenability to quantitative microinjection assays, cell cycle analyses, biochemical fractionation and microscopic imaging of eggs and early embryos. Initially, we hypothesized that if O-acetyl-ADP ribose produced by SIR2 was involved in SIR2's gene silencing ability, then micro-injection of O-acetyl-ADP ribose into a maturing oocyte should give rise to a phenotypic effect on the developing animal, perhaps through perturbations in normal gene expression patterns. Immature oocytes were micro-injected with HPLC-purified O-acetyl-ADP ribose or with a buffer control. The oocytes were allowed to mature by the addition of 1-methyladenine and assessed for developmental alterations.
Asterina miniata immature oocytes were microinjected with the amounts of O-acetyl ADP ribose in PBS. The maturation hormone 1-methyladenine was added (10 μM) 25-30 minutes post-injection. Oocytes were monitored for GVBD and polar body extrusion. […] The number of oocytes per treatment is given. Combined results of 3 separate experiments (3 batches of O-acetyl ADP ribose).
Asterina miniata immature oocytes were microinjected with the given enzymes in PBS. The maturation hormone 1-methyladenine was added (10 μM) 25-30 minutes post-injection. Oocytes were monitored for GVBD and polar body extrusion. […] The number of oocytes per treatment (n) is given. Data are from four separate batches of oocytes. All oocytes for a given treatment responded in the same way unless indicated otherwise (e.g. see 200 nM HST2 injection).

Series [2] concerns Asterina miniata blastomere of two cell stage embryo. Briefly: Microinjection into one blastomere of two-cell stage embryo, early embryonic cell division. The series is classed as cell-based. How it is done:
as §1
To examine whether these SIR2 enzymes caused any phenotypic effects on early embryonic cell division, HST2 or the R45A mutant were micro-injected into one cell of the two-cell stage embryos. Asterina miniata oocytes were matured by addition of the hormone 1-methyladenine and then fertilized. One cell zygotes were then placed in injection chambers. After the first cell division, one daughter blastomere was microinjected with the indicated enzyme (see table and figure below). Embryos were monitored for further cell divisions over time. The non-injected daughter blastomere served as the internal control in each experiment. […] Again, there was a clear dosage effect that paralleled the effect observed on oocyte maturation.
Asterina miniata oocytes were matured by addition of the hormone 1-methyladenine and then fertilized. One cell zygotes were then placed in injection chambers. After the first cell division, one daughter blastomere was microinjected with the indicated enzyme. Embryos were monitored for further cell divisions over time. The non-injected daughter blastomere served as the internal control in each experiment. The number of injected embryos per treatment is given (n). Data are from two separate batches of oocytes.

Another series deals with acetyl-peptide (Saccharomyces cerevisiae, UniProt P53686, R45A). Briefly: Catalytic efficiency of R45A mutant compared to wild type HST2. The series is classed as biochemical. Particulars: unpublished data. From the text: To complement these studies, we micro-injected active yeast HST2 and human SIR2 enzymes instead of O-acetyl-ADP ribose. We hypothesized that if acetylated protein substrates were available in the oocyte, then micro-injected enzyme would provide a more constant source of O-acetyl-ADP ribose. As a control, a catalytically impaired mutant of HST2 (R45A) was employed to ensure that any effects were due to the catalytic activity of the enzyme. The R45A mutant is >50-fold lower in catalytic efficiency (kcat and kcat/Km for acetyl-peptide) compared to wild type enzyme (unpublished data).

The mark [3] stands for this setting: final conc 200 nM in blastomere.

We go through three molecules from US7521432B2, “Compositions and methods for identifying agents which regulate chromosomal stability, gene activation and aging” (priority 2000, dated 2009).

Where “and” joins values, the source holds several entries; their conditions need not be identical. Equal values may be shown once. A value given as a limit tells only on which side of the number the result lay.

acetyl-peptide, sequence (P53686 whole entry R45A): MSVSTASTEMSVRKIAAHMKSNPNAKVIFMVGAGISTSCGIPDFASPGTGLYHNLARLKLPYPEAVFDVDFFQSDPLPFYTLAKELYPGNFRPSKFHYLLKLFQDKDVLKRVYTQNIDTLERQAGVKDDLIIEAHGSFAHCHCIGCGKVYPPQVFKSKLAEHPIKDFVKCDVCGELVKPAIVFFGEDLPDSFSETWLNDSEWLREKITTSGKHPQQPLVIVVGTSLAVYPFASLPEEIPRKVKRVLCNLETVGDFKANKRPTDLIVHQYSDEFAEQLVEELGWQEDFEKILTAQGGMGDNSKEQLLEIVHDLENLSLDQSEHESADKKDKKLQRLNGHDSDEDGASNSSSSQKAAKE

B1: hSIRT2: human SIR2 enzyme (protein, UniProt Q8IXJ6 2-389, looked up)
NAD-dependent protein …: AEPDPSHPLETQAGKVQEAQDSDSDSEGGAAGGEADMDFLRNLFSQTLSLGSQKERLLDELTLEGVARYMQSERCRRVICLVGAGISTSAGIPDFRSPSTGLYDNLEKYHLPYPEAIFEISYFKKHPEPFFALAKELYPGQFKPTICHYFMRLLKDKGLLLRCYTQNIDTLERIAGLEQEDLVEAHGTFYTSHCVSASCRHEYPLSWMKEKIFSEVTPKCEDCQSLVKPDIVFFGESLPARFFSCMQSDFLKVDLLLVMGTSLQVQPFASLISKAPLSTPRLLINKEKAGQSDPFLGMIMGLGGGMDFDSKKAYRDVAWLGECDQGCLALAELLGWKKELEDLVRREHASIDAQSGAGVPNPSTSASPKKSPPPAKDEARTTEREKPQ
B1: in series [1] (above 72 nM), the “effect on oocyte maturation” value is “complete block in maturation”. Also, the “Effects/Notes (oocyte maturation)” value in series [1] (final conc 25 nM) was “no effect was observed”; in series [1] (final conc 60 nM) it was 2 hr delay in GVBD and polar body extrusion and polar; in series [1] (final conc 200 nM), “complete block”.

B2: HST2: yeast SIR2 homolog, recombinant histidine tagged full length NAD-dependent deacetylase (protein, UniProt P53686 2-357, looked up)
NAD-dependent protein …: SVSTASTEMSVRKIAAHMKSNPNAKVIFMVGAGISTSCGIPDFRSPGTGLYHNLARLKLPYPEAVFDVDFFQSDPLPFYTLAKELYPGNFRPSKFHYLLKLFQDKDVLKRVYTQNIDTLERQAGVKDDLIIEAHGSFAHCHCIGCGKVYPPQVFKSKLAEHPIKDFVKCDVCGELVKPAIVFFGEDLPDSFSETWLNDSEWLREKITTSGKHPQQPLVIVVGTSLAVYPFASLPEEIPRKVKRVLCNLETVGDFKANKRPTDLIVHQYSDEFAEQLVEELGWQEDFEKILTAQGGMGDNSKEQLLEIVHDLENLSLDQSEHESADKKDKKLQRLNGHDSDEDGASNSSSSQKAAKE
B2: the “maturation and fertilization of injected egg” value in series [1] (200 nM final, fertilized 4 hours later, FIG. 10A) is on record as “failed to mature”. The “injected eggs in chamber behaving the same way (failed to mature)” value in series [1] (200 nM final, FIG. 10A) is 10 of 10. Moreover, in series [1] (above 72 nM), the “effect on oocyte maturation” value is on record as “complete block in maturation”. Besides, the “Effects/Notes (oocyte maturation)” value in series [1] (final conc 25 nM) was “no effect was observed”; in series [1] (final conc 60 nM), 2 hr delay in GVBD and polar body extrusion; in series [1] (final conc 72 nM), “complete block”; in series [1] (final conc 200 nM), “complete block in 9/10; 3 hr delay 1/10”. The “development of injected cells” value in series [2] (25 nM, most cells) was “developed normally”. In addition, the “division of injected blastomere” value in series [2] (200 nM, injected after complete cytokinesis, FIG. 10C) is on record as “divided once, then both daughters stopped”. Moreover, the “effect on cell division of injected blastomere” value in series [2] (at and above 72 nM) is recorded as “complete block in cell division either at the next or subsequent division”. The “Effects: 3rd cell division” value is recorded as “Normal” in series [2] (final conc 25 nM in blastomere), “Complete” in series [2] (final conc 72 nM in blastomere) and “Complete” in series [2] (setting [3]). The “Effects: Next cell division” value in series [2] (final conc 25 nM in blastomere) is 4/5 normal and 1/5 as slight; in series [2] (final conc 72 nM in blastomere), 4/10 slight and 6/10 no; in series [2] (setting [3]) it was 2/7 slight and 5/7 no. Moreover, the “Effects: other” value in series [2] (final conc 25 nM in blastomere) is reported as “Normal”.

B3: HST2 R45A: catalytically impaired mutant of HST2 (R45A) (protein, UniProt P53686 2-357, looked up, variant R45A)
NAD-dependent protein …: SVSTASTEMSVRKIAAHMKSNPNAKVIFMVGAGISTSCGIPDFASPGTGLYHNLARLKLPYPEAVFDVDFFQSDPLPFYTLAKELYPGNFRPSKFHYLLKLFQDKDVLKRVYTQNIDTLERQAGVKDDLIIEAHGSFAHCHCIGCGKVYPPQVFKSKLAEHPIKDFVKCDVCGELVKPAIVFFGEDLPDSFSETWLNDSEWLREKITTSGKHPQQPLVIVVGTSLAVYPFASLPEEIPRKVKRVLCNLETVGDFKANKRPTDLIVHQYSDEFAEQLVEELGWQEDFEKILTAQGGMGDNSKEQLLEIVHDLENLSLDQSEHESADKKDKKLQRLNGHDSDEDGASNSSSSQKAAKE
As to B3, the “maturation and fertilization of injected egg” value in series [1] (fertilized four hours later, FIG. 10B) is “matured and were fertilized normally”. Further, in series [1] (FIG. 10B), the “injected eggs in chamber behaving the same way (matured, fertilized normally)” value was 7 of 7. Moreover, in series [1] (any concentration from 25-200 nM), the “effect on oocyte maturation” value is reported as “no observed effects”. Also, the “Effects/Notes (oocyte maturation)” value in series [1] (final conc 25 nM), in series [1] (final conc 60 nM), in series [1] (final conc 72 nM) and in series [1] (final conc 200 nM) was “no observed effect” in each case. Further, the “lower in catalytic efficiency (kcat and kcat/Km for acetyl-peptide) compared to wild type enzyme” value in the series with acetyl-peptide is over 50 fold. The “phenotype of injected blastomere” value in series [2] (any concentration) is on record as “no phenotype”. Moreover, the “Effects: 3rd cell division” value in series [2] (final conc 25 nM in blastomere), in series [2] (final conc 72 nM in blastomere) and in series [2] (setting [3]) was “Normal” throughout. Moreover, the figures for the “Effects: Next cell division” value in series [2] (final conc 25 nM in blastomere), in series [2] (final conc 72 nM in blastomere) and in series [2] (setting [3]) were “Normal”, “Normal” and “normal”, respectively. The “Effects: other” value in series [2] (final conc 25 nM in blastomere), in series [2] (final conc 72 nM in blastomere) and in series [2] (setting [3]) was “Normal” each time.
